Experimental data as given in US20160193299A1, “MODIFIED NUCLEOSIDE, NUCLEOTIDE, AND NUCLEIC ACID COMPOSITIONS” (Moderna Therapeutics, Inc., priority 2011, published 2016).

Experiments:
[1] = system: neutrophil count; assay: Example 41 intravenous administration of lipoplexed G-CSF mRNA, neutrophil count; assay type: in vivo; conditions: mice IV, 10% lipoplex, 50 ug at days 0, 2, 4; day 5
Procedure: Neutrophils were measured at days 1, 5 and 8. Controls included non-specific mammalian RNA or the formulation buffer alone (F.Buffer). The mice were bled at days 1, 5 and 8 to determine the effect of mRNA-encoded human G-CSF to increase neutrophil count. The dosing regimen is shown in Table 64 as are the resulting neutrophil counts (thousands/uL; K/uL).

[2] = system: Female BALB/C mice; assay: In vivo detection of innate immune response: human G-CSF and mouse IFN-alpha in serum after I.M. injection; conditions: for IFN-alpha expression: mouse IFN-alpha in serum, 200 ug/mouse mRNA (R848 75 ug); for IFN-alpha expression / G-CSF protein: I.M., 8 hours after dosing; for PC Ratio: Protein:Cytokine ratio, G-CSF / IFN-alpha in mouse serum; for G-CSF protein: human G-CSF in mouse serum, 200 ug/mouse mRNA (R848 75 ug) in 5% sucrose
Procedure: Blood is collected at 8 hours after dosing and using ELISA the protein levels of G-CSF and interferon-alpha (IFN-alpha) is determined by ELISA and are shown in Table 81.

[3] = Stability of modified RNA on storage (gel electrophoresis); assay type: physicochemical
Procedure: Stability experiments were conducted to obtain a better understanding of storage conditions to retain the integrity of modified RNA. […] After the mRNA had been stored for 0 hours, 2 hours, 6 hours, 24 hours, 48 hours, 5 days and 14 days, the mRNA was analyzed by gel electrophoresis using a Bio-Rad EXPERION′ system. The modified, unmodified and lipoplexed G-CSF mRNA was also stored in RNASTABLE® (Biomatrica, Inc. San Diego, Calif.) at 40° C. or water at −80° C. or 40° C. for 35 days before being analyzed by gel electrophoresis.
mRNA samples stored at 4° C., 25° C. and 37° C. were stored in 1× TE buffer or the formulation buffer (150 mM sodium chloride, 2 mM calcium chloride, 2 mM phosphate, 0.5 mM EDTA at a pH of 6.5). The mRNA stored at 4° C. was stable to at least 60 days in both the TE and formulation buffer. At 25° C. the mRNA in formulation buffer was stable out to 14 days and the TE buffer was stable out to at least 6 days. Storage of mRNA in the formulation buffer at 37° C. was stable to 6 days compared to the TE buffer which was stable only until 4 days.

[4] = system: Human primary foreskin fibroblasts (BJ fibroblasts); assay: Innate immune response in BJ fibroblasts, repeat transfection: cytokine response; assay type: cell-based
[5] = system: female Sprague Dawley rats; assay: In vivo delivery of modified RNA: G-CSF protein in rat serum (I.M.); conditions: I.M. 400 ug in 100 ul, 5% sucrose, 8 hours after injection
Procedure: Protein production of modified mRNA was evaluated by delivering modified G-CSF mRNA or modified Factor IX mRNA to female Sprague Dawley rats (n=6). […] Blood was collected 8 hours after injection and the G-CSF protein level in serum was measured by ELISA.

[6] = system: mice; assay: In vivo cytokine expression study (serum IFN-alpha); conditions: mouse serum; I.M. 200 ug mRNA; after 8 hours
Procedure: After 8 hours serum was collected from the mice and analyzed for interferon-alpha (IFN-alpha) expression.

[7] = system: peripheral blood mononuclear cells (PBMC); assay: Example 46A percent-modified G-CSF mRNA transfected in PBMC, G-CSF ELISA; assay type: cell-based, human
Procedure: (§1) 960 ng of G-CSF mRNA modified with 5-methylcytosine (5mC) and pseudouridine (pseudoU) or unmodified G-CSF mRNA was transfected with 0.8 uL of Lipofectamine 2000 into peripheral blood mononuclear cells (PBMC) from three normal blood donors (D1, D2, D3). […] The supernatant was harvested and run by ELISA 22 hours after transfection to determine the protein expression. The expression of IFN-alpha and TNF-alpha may be a secondary effect from the transfection of the G-CSF mRNA.

[8] = system: HEK293; assay: Example 46B percent-modified G-CSF mRNA transfected in HEK293, secreted G-CSF ELISA; assay type: cell-based, human; conditions: HEK293, 250 ng mRNA with RNAiMAX, supernatant after 16 hours
Procedure: Human embryonic kidney epithelial (HEK293) cells were seeded on 96-well plates at a density of 30,000 cells per well in 100 ul cell culture medium. 250 ng of modified G-CSF mRNA (SEQ ID NO: 6; polyA tail of approximately 160 nucleotides not shown in sequence; 5′cap, Cap1) formulated with RNAiMAX™ (Invitrogen, Carlsbad, Calif.) was added to a well. The G-CSF was completely modified with 5mC and pseudoU (100% modification), not modified with 5mC and pseudoU (0% modification) or was partially modified with 5mC and pseudoU so the mRNA would contain 75% modification, 50% modification or 25% modification. Control samples (AK 5/2, mCherry (SEQ ID NO: 7; polyA tail of approximately 160 nucleotides not shown in sequence; 5′cap, Cap1; fully modified 5mC and pseudoU) and untreated) were also analyzed. […] The supernatants were harvested after 16 hours and the secreted G-CSF protein was analyzed by ELISA.

[9] = system: peripheral blood mononuclear cells (PBMC); assay: G-CSF expression in PBMC transfected with partially modified G-CSF mRNA (ELISA); assay type: cell-based, human; conditions: for G-CSF Expression: ELISA 22 hours after transfection
Procedure: as §1, with “480” for “960”, “0.4” for “0.8”, “D2, and” for “D2,”

[10] = system: peripheral blood mononuclear cells (PBMC); assay: IFN-alpha and TNF-alpha expression in transfected PBMC (ELISA) and PC ratio; assay type: cell-based, human; conditions: for IFN-alpha expression / TNF-alpha Expression: ELISA 22 hours after transfection
Procedure: The supernatant was harvested and run by ELISA 22 hours after transfection to determine the protein expression.

[11] = system: peripheral blood mononuclear cells (PBMC); assay: Modified RNA transfected in PBMC: G-CSF expression at 6 and 18 hours (ELISA); assay type: cell-based, human
Procedure: (§2) 500 ng of G-CSF mRNA modified with 5-methylcytosine (5mC) and pseudouridine (pseudoU) or unmodified G-CSF mRNA was transfected with 0.4 uL of Lipofectamine 2000 into peripheral blood mononuclear cells (PBMC) from three normal blood donors (D1, D2, and D3). […] The supernatant was harvested 6 hours and 18 hours after transfection and run by ELISA to determine the protein expression. The expression of G-CSF, IFN-alpha, and TNF-alpha for Donor 1 is shown in Table 86, Donor 2 is shown in Table 87 and Donor 3 is shown in Table 88.

[12] = system: peripheral blood mononuclear cells (PBMC); assay: Modified RNA transfected in PBMC: IFN-alpha and TNF-alpha at 6 and 18 hours (ELISA); assay type: cell-based, human
Procedure: as §2

[13] = 250 ng transfected daily for 5 days, 6 hours
[14] = PBMC, from averages of Tables 83 and 84

B1: Unmodified G-CSF mRNA: human G-CSF mRNA SEQ ID NO: 6 having no modifications (natural NTPs) (nucleic acid, listed as Homo sapiens)
chain: GGGAAAUAAGAGAGAAAAGAAGAGUAAGAAGAAAUAUAAGAGCCACCAUGGCCGGUCCCGCGACCCAAAGCCCCAUGAAACUUAUGGCCCUGCAGUUGCUGCUUUGGCACUCGGCCCUCUGGACAGUCCAAGAAGCGACUCCUCUCGGACCUGCCUCAUCGUUGCCGCAGUCAUUCCUUUUGAAGUGUCUGGAGCAGGUGCGAAAGAUUCAGGGCGAUGGAGCCGCACUCCAAGAGAAGCUCUGCGCGACAUACAAACUUUGCCAUCCCGAGGAGCUCGUACUGCUCGGGCACAGCUUGGGGAUUCCCUGGGCUCCUCUCUCGUCCUGUCCGUCGCAGGCUUUGCAGUUGGCAGGGUGCCUUUCCCAGCUCCACUCCGGUUUGUUCUUGUAUCAGGGACUGCUGCAAGCCCUUGAGGGAAUCUCGCCAGAAUUGGGCCCGACGCUGGACACGUUGCAGCUCGACGUGGCGGAUUUCGCAACAACCAUCUGGCAGCAGAUGGAGGAACUGGGGAUGGCACCCGCGCUGCAGCCCACGCAGGGGGCAAUGCCGGCCUUUGCGUCCGCGUUUCAGCGCAGGGCGGGUGGAGUCCUCGUAGCGAGCCACCUUCAAUCAUUUUUGGAAGUCUCGUACCGGGUGCUGAGACAUCUUGCGCAGCCGUGAAGCGCUGCCUUCUGCGGGGCUUGCCUUCUGGCCAUGCCCUUCUUCUCUCCCUUGCACCUGUACCUCUUGGUCUUUGAAUAAAGCCUGAGUAGGAAG
increase in neutrophil count above control [1]: no pharmacologic effect
IFN-alpha expression [2]: robust cytokine response
freeze/thaw cycles tolerated [3]: 12 cycles

B2: G-CSF Gen 2: G-CSF mRNA SEQ ID NO: 6, Cap1, fully modified with 5-methylcytosine and N1-methylpseudouridine (nucleic acid, listed as Homo sapiens)
chain: B1 chain
modifications: Cap1, 5mC/N1-methylpseudouridine modified
IFN-beta [4, 13]: 0 pg/mL
IL-6 ([4]; daily transfection, 6 hours): 3337 pg/mL
IFN-beta ([4]; daily transfection, Day 1): 0 pg/mL
IL-6 ([4]; daily transfection, Day 1): 3733 pg/mL
IFN-beta ([4]; daily transfection, Day 2): 150 pg/mL
IL-6 ([4]; daily transfection, Day 2): 974 pg/mL
IFN-beta ([4]; daily transfection, Day 3): 213 pg/mL
IL-6 ([4]; daily transfection, Day 3): 4972 pg/mL
IFN-beta ([4]; daily transfection, Day 4): 1400 pg/mL
IL-6 ([4]; daily transfection, Day 4): 4122 pg/mL
IFN-beta ([4]; daily transfection, Day 5): 350 pg/mL
IL-6 ([4]; daily transfection, Day 5): 2906 pg/mL
PC Ratio [2]: 748
G-CSF protein [2]: 748.1 pg/mL
IFN-alpha expression ([2]; listed as 5mc/N1pU modified mRNA): no detectable IFN-alpha
IFN-alpha expression ([2]; listed as GCSF mRNA5mc/N1pU): 0 pg/mL
G-CSF protein [5]: 64.72 pg/mL
IFN-alpha [6]: 0 pg/mL

B3: G-CSF Gen 1: G-CSF mRNA SEQ ID NO: 6, Cap1, fully modified with 5-methylcytosine and pseudouridine (nucleic acid, listed as Homo sapiens)
chain: B1 chain
modifications: Cap1, 5mC/pseudouridine modified
IFN-beta [4, 13]: 0 pg/mL
IL-6 ([4]; daily transfection, 6 hours): 3396 pg/mL
IFN-beta ([4]; daily transfection, Day 1): 38 pg/mL
IL-6 ([4]; daily transfection, Day 1): 3870 pg/mL
IFN-beta ([4]; daily transfection, Day 2): 1125 pg/mL
IL-6 ([4]; daily transfection, Day 2): 16341 pg/mL
IFN-beta ([4]; daily transfection, Day 3): 100 pg/mL
IL-6 ([4]; daily transfection, Day 3): 25983 pg/mL
IFN-beta ([4]; daily transfection, Day 4): 75 pg/mL
IL-6 ([4]; daily transfection, Day 4): 18922 pg/mL
IFN-beta ([4]; daily transfection, Day 5): 213 pg/mL
IL-6 ([4]; daily transfection, Day 5): 15928 pg/mL
PC Ratio [2]: 40
G-CSF protein [2]: 356.5 pg/mL
IFN-alpha expression ([2]; listed as 5mc/pU modified G-CSF mRNA): low but detectable cytokine response
IFN-alpha expression ([2]; listed as GCSF mRNA 5mc/pU): 8.87 pg/mL
G-CSF protein [5]: 19.37 pg/mL
IFN-alpha [6]: 8.867 pg/mL

B4: 100% modification: G-CSF mRNA (SEQ ID NO: 6, Cap1) completely modified with 5mC and pseudoU (nucleic acid, listed as Homo sapiens)
chain: B1 chain
modifications: Cap1; fully 5-methylcytidine and pseudouridine modified
G-CSF Expression ([7]; PBMC donor D1, 960 ng mRNA): 270.3 pg/mL
G-CSF Expression ([7]; PBMC donor D2, 960 ng mRNA): 151.6 pg/mL
G-CSF Expression ([7]; PBMC donor D3, 960 ng mRNA): 162.2 pg/mL
G-CSF Expression [8]: 118.4 ng/mL
G-CSF Expression ([9]; PBMC donor D1, 480 ng mRNA + Lipofectamine 2000): 1968.9 pg/mL
G-CSF Expression ([9]; PBMC donor D2, 480 ng mRNA): 2595.6 pg/mL
G-CSF Expression ([9]; PBMC donor D3, 480 ng mRNA): 2835.7 pg/mL
Average G-CSF ([9]; average of PBMC donors D1-D3): 2466 pg/mL
ratio of protein/cytokine production versus natural G-CSF mRNA, IFN-alpha ([10]; PBMC): 100 fold
ratio of protein/cytokine production versus natural G-CSF mRNA, TNF-alpha ([10]; PBMC): 27 fold
IFN-alpha expression ([10]; PBMC donor D1): 336.5 pg/mL
TNF-alpha Expression ([10]; PBMC donor D1): 115.0 pg/mL
IFN-alpha expression ([10]; PBMC donor D2): 78.0 pg/mL
TNF-alpha Expression ([10]; PBMC donor D2): 15.0 pg/mL
IFN-alpha expression ([10]; PBMC donor D3): 46.4 pg/mL
TNF-alpha Expression ([10]; PBMC donor D3): 11.1 pg/mL
G-CSF/IFN-alpha (PC ratio) [10, 14]: 16
G-CSF/TNF-alpha (PC ratio) [10, 14]: 52
Average IFN-a ([10]; average of PBMC donors D1-D3): 153 pg/mL
Average TNF-a ([10]; average of PBMC donors D1-D3): 47 pg/mL
G-CSF ([11]; PBMC Donor 1, 500 ng mRNA, 6 hours): 1815 pg/mL
G-CSF ([11]; PBMC Donor 1, 18 hours): 2224 pg/mL
G-CSF ([11]; PBMC Donor 2, 6 hours): 2184 pg/mL
G-CSF ([11]; PBMC Donor 2, 18 hours): 2432 pg/mL
G-CSF ([11]; PBMC Donor 3, 6 hours): 6086 pg/mL
G-CSF ([11]; PBMC Donor 3, 18 hours): 7549 pg/mL
IFN-alpha ([12]; PBMC Donor 1, 6 hours): 1 pg/mL
TNF-alpha ([12]; PBMC Donor 1, 6 hours): 0 pg/mL
IFN-alpha ([12]; PBMC Donor 1, 18 hours): 13 pg/mL
TNF-alpha ([12]; PBMC Donor 1, 18 hours): 0 pg/mL
IFN-alpha ([12]; PBMC Donor 2, 6 hours): 0 pg/mL
TNF-alpha ([12]; PBMC Donor 2, 6 hours): 0 pg/mL
IFN-alpha ([12]; PBMC Donor 2, 18 hours): 7 pg/mL
TNF-alpha ([12]; PBMC Donor 2, 18 hours): 11 pg/mL
IFN-alpha ([12]; PBMC Donor 3, 6 hours): 7 pg/mL
TNF-alpha ([12]; PBMC Donor 3, 6 hours): 11 pg/mL
IFN-alpha ([12]; PBMC Donor 3, 18 hours): 658 pg/mL
TNF-alpha ([12]; PBMC Donor 3, 18 hours): 11 pg/mL
